Test [1] has as its target T1, 4H464-AA.
T1 chain: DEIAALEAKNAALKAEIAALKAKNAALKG
The experiment in a line: two-hybrid library CCmax.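 Note: natural log of median RNA to DNA barcode read ratio; higher means stronger binding.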 Conditions: mean of both orientations.

Test [2] concerns the target T2, 4H63-AA.
T2 chain: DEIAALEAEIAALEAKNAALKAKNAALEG
The test is described as follows: two-hybrid library CCmax.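 Note: natural log of median RNA to DNA barcode read ratio; higher means stronger binding.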 To be noted: mean of both orientations.

For test [3], the target named is T3, 4H2580-AA.
T3 chain: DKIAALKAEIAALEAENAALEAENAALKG
The test is described as follows: two-hybrid library CCmax.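 Note: natural log of median RNA to DNA barcode read ratio; higher means stronger binding.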 To be noted: mean of both orientations.

The target in test [4] is T4, 4H446-AA.
T4 chain: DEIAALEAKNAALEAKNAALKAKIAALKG
The experiment in a line: two-hybrid library CCmax.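 Note: natural log of median RNA to DNA barcode read ratio; higher means stronger binding.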 Conditions: mean of both orientations.

For test [5], the target named is T5, 4H3969-AA.
T5 chain: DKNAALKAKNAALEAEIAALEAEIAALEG
The test is described as follows: two-hybrid library CCmax.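 Note: natural log of median RNA to DNA barcode read ratio; higher means stronger binding.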 To be noted: mean of both orientations.

The target of test [6] is T6, 4H1454-AA.
T6 chain: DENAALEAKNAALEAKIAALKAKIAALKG
The test is described as follows: two-hybrid library CCmax.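 Note: natural log of median RNA to DNA barcode read ratio; higher means stronger binding.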

The target of test [7] is T7, 4H3595-AA.
T7 chain: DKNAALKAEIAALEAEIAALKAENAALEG
The test is described as follows: two-hybrid library CCmax. Conditions: mean of both orientations.

Test [8] deals with T8, 4H2774-AA.
T8 chain: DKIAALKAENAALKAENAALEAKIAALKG
The experiment in a line: two-hybrid library CCmax. To be noted: mean of both orientations.

The target of test [9] is T9, 4H483-AA.
T9 chain: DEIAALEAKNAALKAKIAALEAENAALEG
The test is described as follows: two-hybrid library CCmax. To be noted: mean of both orientations.

In test [10] the target is T10, 4H1558-AA.
T10 chain: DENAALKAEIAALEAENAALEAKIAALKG
The test is described as follows: two-hybrid library CCmax. Conditions: mean of both orientations.

For test [11], the target named is T11, 4H3049-AA.
T11 chain: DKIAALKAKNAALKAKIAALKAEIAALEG
The test is described as follows: two-hybrid library CCmax. Conditions: mean of both orientations.

Test [12] deals with T12, 4H3414-AA.
T12 chain: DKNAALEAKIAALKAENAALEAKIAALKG
The test is described as follows: two-hybrid library CCmax. Conditions: mean of both orientations.

The target of test [13] is T13, 4H2903-AA.
T13 chain: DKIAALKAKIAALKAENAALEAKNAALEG
The test is described as follows: two-hybrid library CCmax. Conditions: mean of both orientations.

Test [14] has as its target T14, 4H249-AA.
T14 chain: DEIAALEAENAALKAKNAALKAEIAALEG
The experiment in a line: two-hybrid library CCmax. Conditions: mean of both orientations.

The target in test [15] is T15, 4H3129-AA.
T15 chain: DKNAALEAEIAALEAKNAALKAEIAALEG
The test is described as follows: two-hybrid library CCmax. Conditions: mean of both orientations.

The target of test [16] is T16, 4H2961-AA.
T16 chain: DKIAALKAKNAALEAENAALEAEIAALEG
The test is described as follows: two-hybrid library CCmax. Conditions: mean of both orientations.

Test [17] deals with T17, 4H341-AA.
T17 chain: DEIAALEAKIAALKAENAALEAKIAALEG
The test is described as follows: two-hybrid library CCmax. Conditions: mean of both orientations.

Test [18] deals with T18, 4H2728-AA.
T18 chain: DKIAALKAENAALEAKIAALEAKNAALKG
The experiment in a line: two-hybrid library CCmax. Conditions: mean of both orientations.

Test [19] addresses T19, 4H1913-AA.
T19 chain: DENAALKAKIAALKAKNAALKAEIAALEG
The test is described as follows: two-hybrid library CCmax. To be noted: mean of both orientations.

In test [20] the target is T20, 4H3629-AA.
T20 chain: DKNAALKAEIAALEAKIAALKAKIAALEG
The experiment in a line: two-hybrid library CCmax. Conditions: mean of both orientations.

Test [21] addresses T21, 4H3782-AA.
T21 chain: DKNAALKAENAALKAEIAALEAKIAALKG
The experiment in a line: two-hybrid library CCmax. To be noted: mean of both orientations.

For test [22], the target named is T22, 4H2621-AA.
T22 chain: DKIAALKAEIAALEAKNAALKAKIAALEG
The test is described as follows: two-hybrid library CCmax. To be noted: mean of both orientations.

In test [23] the target is T23, 4H380-AA.
T23 chain: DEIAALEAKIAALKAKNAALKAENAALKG
The experiment in a line: two-hybrid library CCmax. Conditions: mean of both orientations.

Test [24] addresses T24, 4H3939-AA.
T24 chain: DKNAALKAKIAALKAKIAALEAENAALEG
The test is described as follows: two-hybrid library CCmax. To be noted: mean of both orientations.

The target of test [25] is T25, 4H2699-AA.
T25 chain: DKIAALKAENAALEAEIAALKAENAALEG
The test is described as follows: two-hybrid library CCmax. To be noted: mean of both orientations.

Test [26] addresses T26, 4H2503-bH.
T26 chain: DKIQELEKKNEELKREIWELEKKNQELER
The test is described as follows: two-hybrid library CCNG1.

Test [27] deals with T27, 4H40-bH.
T27 chain: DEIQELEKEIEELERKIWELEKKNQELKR
The experiment in a line: two-hybrid library CCNG1.

For test [28], the target named is T28, 4H477-bH.
T28 chain: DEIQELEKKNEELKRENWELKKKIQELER
The test is described as follows: two-hybrid library CCNG1.

Test [29] has as its target T29, 4H319-bH.
T29 chain: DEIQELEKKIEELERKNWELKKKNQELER
The test is described as follows: two-hybrid library CCNG1.

Test [30] concerns the target T30, 4H2717-bH.
T30 chain: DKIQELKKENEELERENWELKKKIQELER
The test is described as follows: two-hybrid library CCNG1.

Test [31] has as its target T31, 4H2692-bH.
T31 chain: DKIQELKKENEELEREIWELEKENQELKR
The experiment in a line: two-hybrid library CCNG1.

The target in test [32] is T32, 4H2588-bH.
T32 chain: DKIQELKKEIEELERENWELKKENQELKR
The test is described as follows: two-hybrid library CCNG1.

In test [33] the target is T33, 4H3277-bH.
T33 chain: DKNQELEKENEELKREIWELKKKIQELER
The test is described as follows: two-hybrid library CCNG1.

Test [34] addresses T34, 4H2438-bH.
T34 chain: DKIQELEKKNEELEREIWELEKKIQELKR
The test is described as follows: two-hybrid library CCNG1.

In test [35] the target is T35, 4H2915-bH.
T35 chain: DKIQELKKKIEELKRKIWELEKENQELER
The experiment in a line: two-hybrid library CCNG1.

Test [36] deals with T36, 4H348-bH.
T36 chain: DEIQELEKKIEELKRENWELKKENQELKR
The test is described as follows: two-hybrid library CCNG1.

Test [37] addresses T37, 4H3057-bH.
T37 chain: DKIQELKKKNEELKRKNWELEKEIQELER
The experiment in a line: two-hybrid library CCNG1.

The target of test [38] is T38, 4H741-bH.
T38 chain: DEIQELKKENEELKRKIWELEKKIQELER
The experiment in a line: two-hybrid library CCNG1.

Test [39] deals with T39, 4H2473-bH.
T39 chain: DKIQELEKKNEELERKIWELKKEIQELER
The test is described as follows: two-hybrid library CCNG1.

Test [40] has as its target T40, 4H2839-bH.
T40 chain: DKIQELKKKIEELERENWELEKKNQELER
The test is described as follows: two-hybrid library CCNG1.

The target of test [41] is T41, 4H492-bH.
T41 chain: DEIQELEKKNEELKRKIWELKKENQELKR
The experiment in a line: two-hybrid library CCNG1.

For the molecule DENAALEAKNAALEAKIAALKAKIAALKG [4H1454-AA], the interaction score in test [1] was -1.48; in test [2], -0.402; in test [3], -0.961; in test [4] it was -1.96; in test [5], 2.05; in test [6] it was -1.09. Also, the interaction score in [7] is 0.813; in test [8], -1.09; in [9], -0.924; in test [10] it was -0.946; in test [11] it was 0.754; in [12], -1.31. The interaction score is -1.74 in test [13]; -1.11 in [14]; -1.84 in test [15]; 1.04 in test [16]; -1.24 in test [17]; -1.37 in [18]. In addition, the interaction score in [19] is -1.24; in [20] it was -1.38; in [21] it was 0.615; in test [22], -0.876; in test [23], -1.14; in test [24] it was -1.25. The molecule further returned an interaction score in [25] of -0.894.
With DKIQELEKKNEELEREIWELEKKIQELKR [4H2438-bH], the interaction score in [26] was 0.644; in [27], -0.00537; in test [28], 0.358; in test [29], -1.85; in test [30], 0.187; in [31] it was 0.322. In addition, the interaction score in test [32] was -0.0625; in [33] it was -0.355; in test [34], -0.05; in [35], 1.73; in test [36] it was -0.861; in [37] it was 1.41. In addition, the interaction score is -0.318 in test [38], 1.01 in test [39], 0.0743 in test [40] and -0.644 in test [41].

These data come from PMC10397247.
